In paper doi:10.1101/758698:

Experiments:
Experiment in all cases: fluorescence polarization
hBrr2T1 = hBrr2T1 (human, UniProt O75643 395-2129)
hBrr2T1-SS-linear = hBrr2T1-SS-linear (human, UniProt O75643 395-2129, M641C;A1582C)
hBrr2T1-SS-rot+ = hBrr2T1-SS-rot+ (human, UniProt O75643 395-2129, D534C;N1866C)

Measured: binding result

Sequence of hBrr2T1 (O75643 395-2129): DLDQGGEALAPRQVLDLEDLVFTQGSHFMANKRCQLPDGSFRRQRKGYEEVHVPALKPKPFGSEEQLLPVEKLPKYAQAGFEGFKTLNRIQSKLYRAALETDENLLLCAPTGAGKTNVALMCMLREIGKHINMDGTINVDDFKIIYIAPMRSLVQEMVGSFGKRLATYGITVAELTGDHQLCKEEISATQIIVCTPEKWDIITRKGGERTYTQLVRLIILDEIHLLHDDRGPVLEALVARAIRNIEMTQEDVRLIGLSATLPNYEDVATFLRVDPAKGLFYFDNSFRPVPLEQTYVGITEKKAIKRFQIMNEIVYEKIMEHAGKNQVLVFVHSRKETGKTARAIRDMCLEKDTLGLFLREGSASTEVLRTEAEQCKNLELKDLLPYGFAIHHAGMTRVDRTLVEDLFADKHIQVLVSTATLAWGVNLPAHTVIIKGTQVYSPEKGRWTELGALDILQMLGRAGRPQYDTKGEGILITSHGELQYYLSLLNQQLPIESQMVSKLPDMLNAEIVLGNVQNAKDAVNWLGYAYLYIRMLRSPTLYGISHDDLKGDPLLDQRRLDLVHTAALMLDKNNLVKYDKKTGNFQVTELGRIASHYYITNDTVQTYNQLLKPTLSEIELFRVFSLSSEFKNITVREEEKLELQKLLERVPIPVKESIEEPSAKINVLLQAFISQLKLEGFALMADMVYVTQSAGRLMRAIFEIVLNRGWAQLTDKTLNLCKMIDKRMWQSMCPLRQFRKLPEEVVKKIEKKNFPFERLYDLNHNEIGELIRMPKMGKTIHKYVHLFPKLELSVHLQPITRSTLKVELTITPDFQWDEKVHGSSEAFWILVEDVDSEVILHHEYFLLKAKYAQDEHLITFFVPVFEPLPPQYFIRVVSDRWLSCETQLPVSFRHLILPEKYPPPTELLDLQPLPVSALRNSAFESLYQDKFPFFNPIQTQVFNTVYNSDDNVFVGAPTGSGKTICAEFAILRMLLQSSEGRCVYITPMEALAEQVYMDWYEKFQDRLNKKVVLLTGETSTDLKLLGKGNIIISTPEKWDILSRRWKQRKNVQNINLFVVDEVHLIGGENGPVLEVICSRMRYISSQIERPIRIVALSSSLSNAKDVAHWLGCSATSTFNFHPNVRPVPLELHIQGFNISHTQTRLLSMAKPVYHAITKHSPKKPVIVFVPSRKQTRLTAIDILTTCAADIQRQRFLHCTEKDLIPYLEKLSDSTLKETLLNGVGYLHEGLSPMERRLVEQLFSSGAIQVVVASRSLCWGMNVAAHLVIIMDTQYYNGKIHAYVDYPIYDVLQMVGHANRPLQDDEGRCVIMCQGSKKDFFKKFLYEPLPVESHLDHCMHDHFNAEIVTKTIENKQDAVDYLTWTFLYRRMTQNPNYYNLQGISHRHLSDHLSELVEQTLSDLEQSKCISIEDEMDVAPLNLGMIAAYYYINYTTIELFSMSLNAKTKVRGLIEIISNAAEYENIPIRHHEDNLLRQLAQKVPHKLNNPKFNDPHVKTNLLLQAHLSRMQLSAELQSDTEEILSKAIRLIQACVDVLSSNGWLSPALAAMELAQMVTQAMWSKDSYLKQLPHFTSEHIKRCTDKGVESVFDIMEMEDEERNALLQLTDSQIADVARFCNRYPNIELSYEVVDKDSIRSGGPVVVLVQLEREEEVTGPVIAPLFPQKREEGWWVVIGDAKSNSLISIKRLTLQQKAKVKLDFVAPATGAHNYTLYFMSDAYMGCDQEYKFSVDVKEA
Sequence of hBrr2T1-SS-linear (O75643 395-2129 M641C/A1582C): as the sequence (O75643 395-2129) above, with M247C, A1188C counted along it
Sequence of hBrr2T1-SS-rot+ (O75643 395-2129 D534C/N1866C): as the sequence (O75643 395-2129) above, with D140C, N1472C counted along it

B1: RNA duplex with 3' ss overhang (dsRNA)
RNA 1: CGCGUGCUGGUCGAAAUUUAAUUAUAAACCAGACCGUC
RNA 2: GACCAGCACGCG
binds: hBrr2T1 | hBrr2T1-SS-linear | hBrr2T1-SS-rot+
